Test results from a protein production outcome set (Wang et al. 2014).

Experiment: label from the status in PepcDB records

Sequence | protein production
MSSLVGLHYATVLPLAAYLLLAVVILLLAMGRDGAARKTFTASLLMIVLGWIPYIAAFLLLDYSLDEVAKNASDELSPYLRIGAAWSGGGGSLYLFSAFLSLAILLQMLLNKGLNRRAMAVFTLLVLTSMTSATLMGAFGTGPGERGGLGINPVLKNYWVVPHPTTTFLGYSFILVGSVALVLGYYRTGLPIQLLGLAFLTFGLVFGGMWSYETFGWGGYWAWDPVETSQLAVWLATVASIHMIGPLRSLNRGFAAYAASSVFLALYVTRSGVSPLHSFAAESFSAVLLLSASLVMLALSMLLFSEGVGETLEKWKSRLQDARWPPRIAEMNLSNILLTVGSVSIALSALIVYSSLLTPSVLKLVGLDTQPPSFEQGVRFYNRLLIPLALVSLYAVAGYYVSVRAGAKAAYSLFATLTVVLAIMGLATVKNTIIISPLSDTTTNLASATLLAAGSISGSVLLAMSLWMLYGMVKGKVAKSVHTLRIVLEKLVHATMIMILVSVAMSGSYAYNQGYSEEVLVPLGGEVSVMGVTISYEGYDYELHQGTVDLKNNLDPSSAILITAREALNMMDEDLSSTIREYRLASAESQSDRTLQTLLKASASNSEYRGVFTSTRGVADAAVVDVRTGENISNIQTAGETVLQLEDPTLEVTIDPKLDPETGRIEGGALSVVFYPERLVVYGIGSPVSLDPYSYLYVRFREPVEINLDDITVNMEEVVVYSTGGSSIEGVVSGQSVLFEGVAIRVVSGELSFGSMNIELPYQLDRGEFFYFMVYKGQAEVLDDILSSSISDLLESGIAGLAAGEDMDDFNVPRRAPAGVSLRLFMEVNGEPVEADLRFEANGEAIGIHGLVIDTIILRRGLTNVYITVQAPLVSGHFGEYHELMVYYLNEAMNTLRPEEYLALASVMAAGYNIASIVSSPSKERAALEVERATIDLYLLSEKLDEKRSSAAEGIVVSVKIVPGVPLLWLTGVLAGVLLLAMASIHFYLGFRQGRLIDT | failed
MPIRGFHYRGDEAIYPASVVKLFYLVAALEWLQQGMIQPSAELDRALRDMIVDSSNDATGYIVDLLSGTTSGPELGDGPFKTWQFQRNIVNRYYQSLMWPELQPINVNQKTWGDGPYGRERAFYGPEFENRNKLTTNATARLLHAIAGGVAVSPSASQRMLNLLNRPFDPRSLAEDPENQVTGFLGQDLPQGSQLWSKAGWMSRVRHDAAYLEIPGLPPHLLVAFTEGKEHANNEAILPFIAQQVRQQLQPALEHHHHHH | failed
MVARDTTAPQVKIVNPVTGNVSGSNVPISVNASDDSGASGITYALYIDGVLKATGKGSTLGYNWNIRNVAAGAHTVQVVAKDAAGNSASSSLEHHHHHH | not failed
MEYKKFVEARRELNEKVLSRGTLNTKRFFNLDSAVYRPGKLDVKTKELMGLVASTVLRCDDCIRYHLVRCVQEGASDEEIFEALDIALVVGGSIVIPHLRRAVGFLEELREMEKNGETISL | not failed
MNSIKTPLLFLLIAFSSIFQSFSAGKPLGYEIKATIKGVKQADTVYLARYYADKRFYQDTAIADAKGFVSFSDTTHLKEGMYFLLLPGQKVFDFILNPSTLSFSIDTTNLIKSAHFKNSPDNTAFYDYQRFFMNQKTKADSINNLMKSAAATQKTVLTKQLSDIDSTMLAYIQNFLKTNPNSLFTAILKTTKDVDVPPAPKKADGSIDSSWQFHYYKKHYFDNVNFSDDRLIRTPVLVNKVDGYFKNLVVQRPDSIIKEIDMIISKCNPKGDLFEYYVREYTYKYETSQVMGMDAVFVHLGKEYYMKGKCFWATPETVKKIKERVDLLDPLLLGKKAPNLYMTDTTGTYRYLYDVQAKYTILFFWDSQCGHCQQETPKLYDWWLKNRAKGIQVYAANIERKDEEWLKFIRSKKIGGWLNVRDSKNHTDFKITYDIYATPVLYVLDKNKVIIAKRIGYENLDDFLVQYEKSLKTK | failed
MSERPVQSKLNNALNILKQGDLRGSYAELERLLRDDLENAEIDYTLKGVRFWEDKLEKAKKASTPLERAEMMISQWKPFLAYIHRQGEEKESIIYSLKCAVFTIALEFYADLFNEESELPDAEPYRKIGLCYKVLGNYERALDFLRYAAEIDKNSGSVLADLADCYALYGEIKFAKAFFREAFFIDPEGIELQFLESEIICRLINRVYNLGYRVEDIADWLPIYGVIDGVFNVKRELRAFEVGQLKQNIFLMEGEVQNASQEQKHKLVPRLINHYFWLIDHYVSVNESKSKIDDLLLRIKVLDQNIYNCYMR | failed
MYKLDHLNHNTLDESSLELHETPKGYTNVALFGLDSRDGELSGGVRSDSIMIVSINNKTGDVKIISVYRDTLLKQQDGSYEKANAAYSFGGPQEAVAMLNRNLDLDITKYASVNFNSLADIIDILGGVEVELTSEEIFWLNGYTAETSQVVGRQTHTLDENSPGVHNLDGIQAVSYTRIRYTAGDDFKRAERQRIILQKMIQKLKTAGPVKWNKILDQVLPEISTNMTTPDIMKLGLNIFRYKIGETKGFPFDITTSENVIGLEGSYAVAIGHADNVRQLHEQLFGETGYQPSDEVQQISQDVAYLTGVLEHHHHHH | not failed
MPTLKVAYIPEHFSTPLFFAQQQGYYKAHDLSIEFVKVPEGSGRLINLLNSNEVDIAIGLTEAFIADIAKGNENIHVLDTYVKSPLLWAVSTGSNRDDVTDAKQLKRIGVSRIGSGSYVMSFVLAHQLGVPSFDQFQVLSNFKNLRDSVNLKDGVEGSDAFMWEYFTSKKYYDNHEIKQIDQIYTPWSSWVVATSSDSLQAKSDVIKNFIDAVNQGIQYYNEHVDEAIEYISSNLDYSAEDAKEWTKTVEFNSRIGKTPLDWDTIVVKTKDTLKLAGVLAESDDVILKRLNSNVKKTNL | not failed
MKWIDSHIHVDQYKDEEKSRLLKEVENSKEIKGLIAVSMNYQSCKETLSLAKKYPFIYPAIGFHPEQQIHKEECEQIYQLIEQNAEEIVAIGEVGLPYYLRKEDERIAADPYIAVLKKFIELASKYNLPIVLHAVYEDADIVCDLLEKYKVSRAHFHWFKGSDETMKRMMRNGYYISITPDVLHKEKIRKIVSYYPLEYMMVETDGPWEFQEDVITHPRMIREVLKEISSIKNISIDKVAETIYENTSRFYLK | failed
MAKKRGKPEIDWTDDDKEIIWVSKSEIKRDSEHLKKLGAELIELTPQNLEKIPLDEDLKYAIRQAQSFKLEARRRQIQFIGKLLRNRDSAPIQDALDKVKNRHNQQQALLHKLELIRDQLINMGDASLNQLLSEYPQLDRQHLRNLIRMAQKEKQINKPAKNYHEILQYLKSELIV | not failed
MKKITIISGHPNHESSISNKAILEYLESNVMESQLNIRKLEDLNTHFEFNVIQEQEALLQADTIIFQFPLFWYSFPALMKKWIDDVICYGFAFGGEKGAQLKDKQFIFSFTIGGQESAYGNEKEIALTIDELLKPLKQMLRYCQVKDINYVYSHNMLYIPDMYGSIEDINVRSECHAIKLLSMVN | failed
MLWTQVYDPFSNITLSAMVAMLPLAILFYMLAVRRAKGHVAAACGLAGAFAATVAVWGMPAGLAVNATLYGVAMGLFPIIWIVLTAVWLYNMTVESGEFEIIKSSLARLTDDRRLQALFIAFAFGAFLEGTAGFGTPVAITAAMLMGLGFSPVYAGGICLIANTAPVAFGALGIPVIVASQVSGLDTLTLSQYVGRQLPVFSLIVPLWMTVVMCGFKRTMEVMPAIVVASVCFSGTQFIFADWHGPTLPDVMAAIVTIVGLLVLLRFWKPARTWHFADEKPEAATGETRHSTGEVLRAWAPYAILAVFVFFWGLGSVKTFLNNIFIMSFEWPGLHAAIAKTAPIVKADAPYAAKFTFNLISAGGTAILFAGLLSVPVMPGYGYGRAFGCLARTCYQLRFPILTIVMILGLAQLMNYSGMSSTLGIAFTHTGALFPFFAPIMGWLGVFLTGSNTSSNALFGSMQHATASAVGVDPYLTVAANATGGVTGKMISPQSISVATASTHTVGQEGALFRFALKHSIAMTLVICVLVTLQAYVIPWMLPAR | failed
LNDALLLMEANIEDPLTTDEIAGLVGVSRRQLERLFRQYLGAMPSKYYLNLRLLKARTQLQRTSKSVVQVSLACGFSSAAHFSNAYRERFGVTPREDRRA | not failed
VGDHDSHEVMQRLDALLPTLRERAQETEDLRRIPDDSMKALQETGFFRLLQPEQWGGYQADPVLFYSAVRKIASACGSTGWVSSIIGVHNWHLALFSQQAQEDVWGNDTDVRISSSYAPMGAGQVVDGGYTVNGAWAWSSGCDHASWAVLGGPVIKDGRPVDFVSFLIPREDYRIDDVWNVVGLRGTGSNTVVVEDVFVPTHRVLSFKAMSNLTAPGLERNTAPVYKMPWGTIHPTTISAPIVGMAYGAYDAHVEHQGKRVRAAFAGEKAKDDPFAKVRIAEASSDIDAAWRQLSGNVADEYALLVAGEEVPFELRLRARRDQVRATGRAISSIDKLFESSGATALANGTPLQRFWRDAHAGRVHAANDPERAYVMYGTGEFGLPITDTMV | not failed
MDTVPPRTYNNSNFPEGLPAVSLSDEERARQQRWTPLRVTIWILISAIAGLGWWMLAVRRGETVNGIWFVFAAIGSYFIGYRFYAKYIQDKLVHPDDSRATPAEYDYNGRDFVPTDRRILYGHHFAAIAGAGPLVGPVLSAQMGYLPSTIWIIVGVILAGAVQDYLVLVISMRRGGRSLGQMAREELGRFGGIAALIATLTIMLIIVAILAMVVVNSLAASSWGVWSVGLTIPIALLMGFYLRYLRPGKVFEVSIIGIVLLVLAIASGAWIENTAVASALHLSKPFLAWAIIIYGFIAAVLPVWMLLAPRDYLSTFMKVGVIAMLAISIVIVRPVINVPAMTVYATNGAGPVFSGKLFPFLFVTIACGALSGFHATISSGTTPKLIEKESQARLIGYGGMLMESFVAIMALVAALSVDRGIYFAMNSPAGATGNTVKSAIAYVNSLGLSGVHANANTLTTTAKLVGETSIVSRTGGAPTLAVGLATIMHKIFGGEAMMSFWYHFAIMFEALFILTSVDAGTRVARFMLSDALGNFWPRLKDHSWKVGSWLTTAIMVAGWGSILLMGVTDPLGGINTLFPLFGIANQLLAAVALSICLVIFARAGHTWRLLIIFVPMLFTAIITVYGSWLKIFSPDPKLGYWANHMTYKRAIADGKTSLGQAKNIDEMHTVVGNTAIQGTMSIIFVVCALIVMIVACIRTVQALRGRNIIDTEDPAKPSKIFAPSGLMPTKAERDLQVEWDAFYEEHPELDLESVHKDKEHA | failed
METRAHHVLIGLFTVIVVAGALLFGLWLAKSSVDSAFQDYQIVFNEAVSGLSKGSSVQYSGIKVGDVVNLRLDPKDPRRVLAQIRLGSETPIKEDTQAKLALTGITGTSIIQLSGGTPQSPTLKGKDGELPTIIASPSPIARLLNNSNDLMTGVNLLLHNANRMFSPDNVARVSSTLDNLQKTSASIAEQRDDLRQLMQQLGSISKQTGAMLEQTTALMRNANGLLNDQGKQMFGSAEHAMRSLEQSSATLNKLLSDNQDSLNNGMQGLNGLAPAVRELRETLSSLRAITRRLEANPGGYLLGNEKNKEFTPLEHHHHHH | not failed
KTMKMRKFTIADASLERSPGQEADISVGNLVDERHGGPITIGYGRYAPGQSLTETMAVDDVMIVLEGRLSVSTDGETVTAGPGEIVYMPKGETVTIRSHEEGALTAYVTYPHWRPAHA | not failed
MDRRRFLVGLLGLGLARGQGLRVEEVVGGLEVPWALAFLPDGGMLIAERPGRIRLFREGRLSTYAELSVYHRGESGLLGLALHPRFPQEPYVYAYRTVAEGGLRNQVVRLRHLGERGVLDRVVLDGIPARPHGLHSGGRIAFGPDGMLYVTTGEVYERELAQDLASLGGKILRLTPEGEPAPGNPFLGRRGARPEVYSLGHRNPQGLAWHPKTGELFSSEHGPSGEQGYGHDEVNLIVPGGNYGWPRVVGRGNDPRYRDPLYFWPQGFPPGNLAFFRGDLYVAGLRGQALLRLVLEGERGRWRVLRVETALSGFGRLREVQVGPDGALYVTTSNRDGRGQVRPGDDRVLRLL | not failed
MNPPEKLLTAENPALRQRAKAMRQEMSEAEAKLWQHLRAGRLNGYKFRRQQPMGNYIVDFMCVTPKLIVEADGGQHAEQAVYDHARTVYLNSLGFTVLRFWNHEILQQTNDVLAEILRVLQELEKQPAR | not failed
MAIQVKASLRKNPQDKKAAGKYYAQVVLAPEMTQRQIIDQIADRCTVTGSDVKAVLDALMTVIKRNLANGSPIRLGDLGSFRPSVSGIGSENVDKFTASNVKKARVIYVPSAEIKEAVAMYAFSKVGATAEGGNTEKPGGGDIDNPGGGDEEAPDPTVLEHHHHHH | not failed
